Kd data for seven substances are collected here from PMC8168397.

As usually defined, the Kd is the concentration at which binding is half-saturated.

Holding throughout (assay): SPR
On the technique in general: SPR reads the build-up and loss of mass on a sensor chip optically.

The target in assay [1] is Syrian hamster FcγRIV, soluble ectodomain (Syrian hamster (Mesocricetus auratus)).
Assay [2] concerns the target Syrian hamster FcγRIIb, soluble ectodomain (Syrian hamster (Mesocricetus auratus)).
Assay [3] concerns the target Syrian hamster FcγRIII, soluble ectodomain (Syrian hamster (Mesocricetus auratus)).
The target in assay [4] is Syrian hamster FcγRI, soluble ectodomain (Syrian hamster (Mesocricetus auratus)).

With Hamster IgG2a, the Kd turned out to be 17.1 nM in assay [1], 1030 nM in assay [2], 702 nM in assay [3] and 496 nM in assay [4].
Regarding “wild-type human IgG1 (from UniProt P01857)”, the Kd in assay [1] is 102 nM; in assay [2], over 1000 nM; in assay [3], over 1000 nM; in assay [4], 737 nM.
As to Mouse IgG1, the Kd was over 1000 nM in assay [1], 143 nM in assay [2], 78.1 nM in assay [3] and over 1000 nM in assay [4].
As for “human IgG1 Fc domain variant V11 (from UniProt P01857)”, the Kd in assay [1] was over 1000 nM; in assay [2], 345 nM; in assay [3] it was 260 nM; in assay [4], over 1000 nM.
Take Mouse IgG2a: the equilibrium dissociation constant (Kd) in assay [1] was 14.7 nM; in assay [2] it was 1140 nM; in assay [3] it was 572 nM; in assay [4], 338 nM.
With Hamster IgG1, the Kd in assay [1] is over 1000 nM; in assay [2], 56.2 nM; in assay [3] it was 35.5 nM; in assay [4], over 1000 nM.
Consider “human IgG1 Fc domain variant GAALIE (from UniProt P01857)”, for which the Kd was 9.52 nM in assay [1], 328 nM in assay [2], 233 nM in assay [3] and over 1000 nM in assay [4].
